Laboratory results from article PMC2688079.

Molecular target: Aqy1 from Pichia pastoris (Pichia pastoris)
Assay: crystal structure; hanging drop vapour diffusion at 4°C, protein at 9 mg/ml in beta-octylglucopyranoside; Crystal1: 28% PEG400, 100 mM Na-citrate pH 3.5, 200 mM Li2SO4 (1.15 Å); Crystal2: 33% PEG400, 100 mM Tris pH 8.0, 100 mM NaCl, 100 mM CdCl2 (1.40 Å); both space group I4, identical structures

stoichiometry N: 4
Substance: Aqy1 from Pichia pastoris (natural protein)
